Target: T1, TLR7-Fc (toll-like receptor 7 ectodomain fused to human Fc) (UniProt Q9NYK1 27-839)
T1 sequence: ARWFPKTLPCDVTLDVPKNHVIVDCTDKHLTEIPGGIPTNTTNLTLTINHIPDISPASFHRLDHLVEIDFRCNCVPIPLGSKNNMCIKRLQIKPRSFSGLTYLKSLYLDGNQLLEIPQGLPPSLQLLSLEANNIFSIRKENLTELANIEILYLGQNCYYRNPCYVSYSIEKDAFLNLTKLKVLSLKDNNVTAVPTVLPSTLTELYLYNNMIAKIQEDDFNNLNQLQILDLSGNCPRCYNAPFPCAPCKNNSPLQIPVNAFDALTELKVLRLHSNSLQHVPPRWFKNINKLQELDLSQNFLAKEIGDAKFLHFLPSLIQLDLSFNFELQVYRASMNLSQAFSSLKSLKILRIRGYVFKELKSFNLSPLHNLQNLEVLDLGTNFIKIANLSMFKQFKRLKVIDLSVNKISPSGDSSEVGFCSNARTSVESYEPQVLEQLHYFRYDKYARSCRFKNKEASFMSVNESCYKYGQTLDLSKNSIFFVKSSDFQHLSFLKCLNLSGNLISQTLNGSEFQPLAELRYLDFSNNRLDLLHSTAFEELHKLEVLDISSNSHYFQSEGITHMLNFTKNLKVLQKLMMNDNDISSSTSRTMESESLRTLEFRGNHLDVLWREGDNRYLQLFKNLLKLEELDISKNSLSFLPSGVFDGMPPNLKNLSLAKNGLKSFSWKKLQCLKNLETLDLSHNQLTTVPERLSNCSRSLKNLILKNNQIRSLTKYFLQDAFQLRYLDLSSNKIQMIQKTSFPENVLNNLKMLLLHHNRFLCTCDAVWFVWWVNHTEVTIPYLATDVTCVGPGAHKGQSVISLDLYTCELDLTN
Assay: competition

**Q.** Does GUCUUCAAAACUAGGUCGUUUUAGA (ssRNA, 5' phosphate; 3' biotin) [competitor ssRNA] bind?
**A.** binds
